In patent US20240383953:

Legend:
[1] = tested on: WR 1-4wRK peptide (synthetic construct (human NANOG derived)); experiment: EMSA; details: 50% free DNA; DNA bridging by FCCS from 1 uM
[2] = tested on: HIV TAT cell-penetrating peptide (HIV); experiment: FP; details: given as Ka in nM; n=1.1±0.1; not all DNA bound at 0.9 uM in EMSA, no FCCS bridging
[3] = tested on: T1, WR 1-3wRRK peptide (synthetic construct (human NANOG derived)); experiment: FP; details: given as Ka in nM; n=2.1±0.5; almost all DNA bound at 60 nM in EMSA
T1 sequence: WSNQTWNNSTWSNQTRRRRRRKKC

[4] = tested on: WR 1-4wRK peptide (synthetic construct (human NANOG derived)); experiment: FP; details: given as Ka in nM; cooperativity n=3.3±1.2

Chain of WR 1-4wRK peptide (synthetic construct (human NANOG derived)) (chain, as listed by the source): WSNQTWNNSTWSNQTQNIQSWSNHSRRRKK

**Q.** With “GATA6 40 bp DNA (two NANOG cognate sites)” as the substance, how does the K half [1] read?
**A.** 1000 nM

**Q.** What about the K half [2] of the same substance?
**A.** 260 nM

**Q.** What about the K half [3] of the same substance?
**A.** 180 nM

**Q.** What about the K half [4] of the same substance?
**A.** 340 nM
